One molecule from patent US20150352207A1, “USE OF ANTIBODIES AGAINST ICAM-1 IN COMBINATION WITH AN ANTI CANCER DRUG IN THE TREATMENT OF PATIENTS” (BIOINVENT INTERNATIONAL AB, priority 2013, published 2015) can be followed below.

Series [1] has as its system RPMI-8226 myeloma cells. Put plainly: Advanced disseminated RPMI-8226 multiple myeloma model. Conditions: for survival: B11 2 mg/kg i.v. twice weekly for 8 weeks. In kind it is in vivo, SCID mice. The procedure:
ARH-77 cells or RPMI-8226 were injected intravenously into the SCID mice. (A) ARH-77 model. Animals received intravenous injections with antibody at 2 mg/kg or bortezomib (Velcade) at 0.5 mg/kg on Days 7, 10, 13, and 16 (as indicated by arrows in the graph). (B) RPMI-8226-model. B11 or control mAb was administered i.v at 2 mg/kg, twice weekly for 8 weeks, bortezomid, at 1 mg/kg, once weekly for 8 weeks, lenalidomide p.o with 2 mg/kg for 2 cycles consisting of 5 days of treatment and 2 days of wash out, melphalan i.v at 3 mg/kg, once weekly for 8 weeks, and dexamethasone (DXH) at 6 mg/kg/inj 3 times/week for 2 consecutive weeks. There were 6-10 mice per treatment group. Statistical significance was calculated using Log-rank Graphpad Prism software and determined at ***p<0.001. (C) To study the ICAM-1 level on human cells, the cells from different organs were stained and gated for CD38+/mCD45−/B11+. Left panel indicates the percentage of B11 positive cells in CD38+/mCD45 population and right panel the mean fluorescent intensity of the positive cells.
The anti-myeloma effect of B11 was examined in a disseminated model of multiple myeloma. The early and advanced disseminated model of multiple myeloma was performed at Oncodesign, Dijon, France. Briefly: 1×10^6 (early) or 5×10^6 (advanced) ARH-77 tumor cells in 200 μL of RPMI 1640 were injected intravenously (i.v) into the caudal vein of female scid mice (D0). Tumor cell injections were performed twenty four to forty eight hours after a whole body irradiation of mice (1.8 Gy, ^60Co, INRA, BRETENNIERES). The treatment was started at D5 RPMI-8226 model or D7 (ARH-77 model) […]. B11 or control mAb was administered i.v. at 2 mg/kg, twice weekly for 8 weeks, bortezomib, at 1 mg/kg, once weekly for 8 weeks, lenalidomide p.o with 2 mg/kg for 2 cycles consisting of 5 days of treatment and 2 days of wash out, melphalan i.v. at 3 mg/kg, once weekly for 8 weeks, and dexamethasone at 6 mg/kg 1 injected 3 times a week for 2 consecutive weeks.
200 μl containing 10×10^6 of RPMI 8226 tumour cells was intravenously injected into the caudal vein of female SCID mice. The mice had been subjected to a whole body irradiation of mice (1.8 Gy, ^60Co, BioMEP) 24 to 72 hours prior to cell injection. At D1, tumor injected mice were randomized according to their individual body weight. All treatment started day 5 after tumor cell administration except for ALKERAN®, which started at day 10. All treatments were injected in a dose volume of 10 ml/kg/inj. Mice received one of the following treatments:
Monoclonal anti-ICAM mAb or control mAb was administered i.v in a PBS solution containing at 2 mg/kg, 2 times/week for 8 consecutive weeks. […]

The subject of a further series is ARH-77 tumors. Put plainly: Advanced (established, palpable tumors) scid/ARH-77 xenograft model. The note with it: IgG B11 effective even at 100-fold lower dose (0.2 mg/kg) than rituximab.
The subject of series [2] is RPMI-8226 myeloma cells. Put plainly: Subcutaneous scid myeloma xenograft, RPMI-8226. The series is classed as in vivo, scid mice. The note with it: 2 mg/kg twice weekly. The procedure:
(§1) Antibody treatment with 2 mg/kg B11 or control IgG1 was started at Day 1 and was continued on a twice-weekly intraperitoneal dosing regimen. Mice were sacrificed when tumor sizes reached the ethical limit.

For a further series, the system named is ARH-77 cells. Put plainly: Subcutaneous scid/ARH-77 xenograft, treatment from the day after cell inoculation (prophylactic model).
Another series concerns EJM myeloma cells. Nature of the series: Subcutaneous scid myeloma xenograft, EJM. In kind it is in vivo, scid mice. Conditions: 2 mg/kg twice weekly. Here is the method:
as §1

The next series concerns PBMC. Put plainly: PBMC cytokine release. The series is classed as cell-based. The text has this: We next assessed IgG B11 effects on PBMC cytokine release and cell proliferation. In order to maximize chances of identifying any PBMC agonistic properties of IgG B11, we used two different antibody coating-protocols where antibody is hyper-cross-linked as previously described (62).

The target of another series is T1, human FcγRIIIa (Homo sapiens, UniProt P08637).
T1 construct: made in house; host or cells: HEK293E (transient, adherent)
Nature of the series: B11 isotype variant binding to FcγR (Biacore), human FcγRIIIa. The procedure: His-tagged human FcγRIIIa or mouse FcγRIV were expressed transient in adherent HEK293E cells, purified using Ni-NTA chromatography and characterized using SDS-PAGE and/or Biacore. Surface plasmon resonance (SPR) measurements were performed using a Biacore 3000 instrument. Goat α-human-F(ab)′2 F(ab)′2 fragment (Jackson laboratories) was immobilised with a CM-5 chip using a standard amine coupling protocol. IgG1 B11, IgG4 B11, or 297Q B11 were diluted to 15 and 60 μg/mL respectively and added to the surface at […] for 3 min. His tagged human FcγRIIIa or mouse FcγRIV were pre-incubated with an α-HIS antibody (R&D Systems) at a 2:1 molar ratio before addition to the chip surface, 30 μL/min, 1 min. After each cycle the surface was regenerated twice with glycine buffer pH 1.7.

“Also recorded” adds a separate entry of the source.

T1 sequence (P08637 17-254): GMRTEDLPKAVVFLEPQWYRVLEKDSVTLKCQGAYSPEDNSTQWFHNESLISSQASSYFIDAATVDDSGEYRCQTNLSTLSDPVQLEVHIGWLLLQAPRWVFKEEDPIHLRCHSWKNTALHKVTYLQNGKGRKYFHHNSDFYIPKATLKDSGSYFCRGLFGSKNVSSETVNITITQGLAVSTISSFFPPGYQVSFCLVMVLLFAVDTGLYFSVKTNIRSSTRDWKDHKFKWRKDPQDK
Protocol for ARH-77 cells: Tumor cells were injected subcutaneously into the left flank of SCID mice. Mice received twice-weekly intraperitoneal injections with B11, control antibody or rituximab at doses of 20, 2 and/or 0.2 mg/kg commencing one day after tumor cell inoculation. There were 8 to 10 animals per treatment group. (A) Tumor volume as a function of antibody dose. (B) Kaplan-Meier survival graph as a function of antibody dose. […] Statistical significance was calculated relative to control antibody treatment using Kruskal-Wallis Test (Nonparametric ANOVA) with Dunn's Multiple Comparisons Test (tumor volume) or the log-rank test (mouse survival) using Graphpad Instat or Prism software, respectively. Statistical significance was considered for *p<0.05, **p<0.01, and ***p<0.001.
Tumor cells were injected subcutaneously into the left flank of SCID mice. Mice received twice-weekly intraperitoneal injections with B11 at doses of 0.02-20 mg/kg commencing day after tumor cell inoculation. There were 8-10 animals per treatment group. (A) Tumor volume as a function of antibody dose. (B) Kaplan-Meier survival graph as a function of antibody dose. Statistical significance was calculated relative to control antibody treatment using Kruskal-Wallis Test (Nonparametric ANOVA) with Dunn's Multiple Comparisons Test (tumor volume) or the log-rank test (mouse survival) using Graphpad Instat or Prism software, respectively. Statistical significance was considered for *p<0.05, **p<0.01, and ***p<0.001. Graphs illustrate representative experiments out of several performed.
(A) ARH-77 cells were injected subcutaneously into the left flank of SCID mice (n=8 per group). Mice were treated with the different B11 isotypes twice weekly. […] Statistical significance was calculated relative to control antibody treatment using Kruskal-Wallis Test (Nonparametric ANOVA) with Dunn's Multiple Comparisons Test. Statistical significance was considered for *p<0.05, **p<0.01, and ***p<0.001.
Mice were anaesthetized with a mixture of sevofluran and oxygen prior to myeloma cell inoculation and 1-5×10^6 myeloma cells were then subcutaneously injected in a volume of 100 μl into the left flank. Treatment with antibodies by intraperitonial (i.p.) injections was started either the day after cell inoculation (prophylactic model) or when tumors reached a size of approximately 100 mm^3 (established model).
Protocol for ARH-77 tumors: Mice were anaesthetized with a mixture of sevofluran and oxygen prior to myeloma cell inoculation and 1-5×10^6 myeloma cells were then subcutaneously injected in a volume of 100 μl into the left flank. Treatment with antibodies by intraperitonial (i.p.) injections was started either the day after cell inoculation (prophylactic model) or when tumors reached a size of approximately 100 mm^3 (established model). Antibodies were administrated in PBS in a total volume of 200 μL. Treatment with PBS or isotype control was used as control. Tumors were measured with a digital calliper and the tumor volumes were calculated according to formula: width^2×length×0.52. Animals were sacrificed when the tumor sizes reached the ethical limit of 1.5 cm. Surviving mice were sacrificed after a maximum of 5 months. Blood samples collected from the vena cava were centrifuged at 2500 g for 15 min to obtain serum and the samples were stored at −20° C. Tumors were removed for immunohistochemistry, snap frozen and were kept at −85° C.

B1: IgG B11: novel human ICAM-1 antibody targeting the B11 epitope, isolated from the naïve antibody library n-CoDeR (antibody, V domains shown)
VH: EVQLLESGGGLVQPGGSLRLSCAASGFTFSNAWMSWVRQAPGKGLEWVAFIWYDGSNKYYADSVKGRFTISRDNSKNTLYLQMNSLRAEDTAVYYCARYSGWYFDYWGQGTLVTVSS
VL: QSVLTQPPSASGTPGQRVTISCTGSSSNIGAGYDVHWYQQLPGTAPKLLIYDNNNRPSGVPDRFSGSKSGTSASLAISGLRSEDEADYYCQSYDSSLSAWLFGGGTKLTVLG
modifications: B11 antibody variable H region; B11 antibody variable L region
Turning to B1, the survival entry in the series on RPMI-8226 myeloma cells [1] is reported as “significantly enhanced survival; also recorded: trend towards improved survival in IgG B11 treated mice compared to mice treated with the immunomodulatory drug revlimid”; with RPMI-8226 myeloma cells [1] (listed as B11, 2 mg/kg), “significantly enhances survival; also recorded: highly improved survival”; in the series with RPMI-8226 myeloma cells [1] (listed as anti ICAM-1 mAb) it was “more effective compared to other SOC single therapies”; in the series with ARH-77 cells (IgG B11 at 2 mg/kg, ten-fold lower dose than rituximab), “complete survival”. Besides, in the series with RPMI-8226 myeloma cells [1] (B11 2 mg/kg i.v. twice weekly, compared to bortesomib and dexamethasone), the disease onset entry is given as “delayed disease onset”. For the same molecule, in the series with ARH-77 tumors, the animal survival result was “prolonged animal survival”. Besides, the tumor growth result in the series on ARH-77 tumors was “significantly prevented tumor growth”; with ARH-77 cells (20 mg/kg twice weekly i.p., commencing one day after tumor cell inoculation) it was “completely prevent tumor-growth”. Moreover, the results for the “reduction of myeloma tumor growth” value with RPMI-8226 myeloma cells [2] and in the series with EJM myeloma cells were 96% and 98%, respectively. In addition, the “anti-tumor activity in dose-titration experiment” value in the series on ARH-77 cells (B11 0.02-20 mg/kg twice weekly i.p.) was “peaked at the 2 mg/kg dose and remained near maximal at a dose of 0.2 mg/kg”. In addition, the “anti-tumor activities of IgG B11 isotype switch variants (rank order)” value in the series with ARH-77 cells (twice weekly treatment, s.c. ARH-77) was “increased in the order of IgG1N297Q<IgG4<IgG1”. Moreover, the PBMC cytokine release entry was “did not induce or enhance cytokine release” with PBMC (antibody in solution, resting or lipopolysaccharide pre-stimulated PBMCs); “did not, however, induce PBMC cytokine release” with PBMC (immobilised antibody, or in solution with or without cross-linking reagent); “not significantly affected” with PBMC (immobilised antibody, or in solution with or without cross-linking reagent, listed as B11). Also, the “binding to human FcγRIIIa” value with human FcγRIIIa is reported as “bound to human FcγRIIIa”.
